In patent publication WO2021028752A1 (dated 2021):

Molecular target: recombinant human TNFa (human, UniProt P01375 77-233, 125I label (only in the receptor inhibition assay))
Experiment: cell-based or functional assay

recombinant human TNFa, sequence (P01375 77-233 limits assumed): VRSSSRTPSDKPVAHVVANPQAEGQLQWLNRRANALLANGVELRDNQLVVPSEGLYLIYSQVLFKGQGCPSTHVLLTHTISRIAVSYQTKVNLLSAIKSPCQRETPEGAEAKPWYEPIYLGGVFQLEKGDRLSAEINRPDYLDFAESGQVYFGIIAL

neutralizing TNFa bioactivity: 4 fold
B1: TNV196 (antibody, V domains shown)
VH: QVQLVESGGGVVQPGRSLRLSCAASGFTFSSYAMHWVRQAPGKGLEWVAFISYDGSNKKSADSVKGRFTVSRDNSKNTLFLQMNSLRAEDTAVFYCARDRGIGAGGNYYYYGMDVWGQGTTVTVSS
VL: EIVLTQSPATLSLSPGERATLSCRASQSVYSYLAWYQQKPGQAPRLLIYDASNRATGIPARFSGSGSGTDFTLTISSLEPEDFAVYYCQQRSNWPPFTFGPGTKVDIK
